From paper PMC11558822, “Myc 9aaTAD activation domain binds to mediator of transcription with superior high affinity” (Molecular Medicine, 2024)
No end group written: not given here. *: point of attachment. Biotin = O=C1N[C@H]2[C@H](CS[C@H]2CCCCC(=O)*)N1

How the values were obtained:
[1] = biological target: T1, KIX domain of CBP coactivator (region 586-672) (UniProt P45481 586-672); assay: BLI; biotinylated peptide immobilised on streptavidin SA biosensors (Octet RED96e); KIX domain in solution at 0.31, 0.63, 1.25, 2.5 and 5.0 uM; 30 C, 1000 rpm; 20 mM sodium phosphate pH 6.0, 50 mM NaCl; blank-subtracted, 1:1 model, steady-state analysis; apparent KD, average of pentaplicate; conditions: both partners purified
T1 construct: GST-His6x tag removed by TEV protease; also called KIX protein; source: expressed as GST-His6x-TEV-KIX from pGEX-2T, purified (His trap Ni column, TEV cleavage, second His trap, HiLoad S30); not shown: GST, N-terminal, cleaved; His6, N-terminal, cleaved
T1 sequence (P45481 other isoform, or with tags, fused parts or gaps): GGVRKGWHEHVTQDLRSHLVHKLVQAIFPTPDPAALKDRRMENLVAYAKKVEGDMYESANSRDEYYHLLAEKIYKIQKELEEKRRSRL

[2] = biological target: T1, KIX domain of CBP coactivator (region …); assay: BLI; biotinylated Sp1 or Sp1-Ac peptide immobilised, KIX in solution in the 3-16 uM range; steady-state analysis, 1:1 model; apparent KD; conditions: both partners purified

Row | Kd [1] [nM] | Kd [2] [nM] | Binder
1 | 880 ± 110 |  | Biotin-GSSSEPPSWVTEMLLEN (linker between biotin and the N-Myc stretch; human N-Myc stretch with its 9aaTAD; also called N-Myc peptide; NMY peptide; source: synthetic peptide (Apeptide Shanghai Chutide Biotechnology), 95% purity) [N-Myc 9aaTAD peptide (Biotin-GSSS-EPPSWVTEMLLEN)]
2 | 2160 ± 1170 |  | Biotin-GSSSTQLEMVTELLG (linker between biotin and the c-Myc stretch; it may belong to the linker; also called c-Myc peptide; MYC peptide; source: synthetic peptide (Apeptide Shanghai Chutide Biotechnology), 95% purity) [c-Myc 9aaTAD peptide (Biotin-GSSS-TQLEMVTELLG)]
3 | 1170 ± 210 |  | Biotin-GSNILPSDIMDFVLKNT (linker between biotin and the MLL stretch; MLL stretch with its 9aaTAD; Positive control of the BLI assay; also called MLL peptide; source: synthetic peptide (Apeptide Shanghai Chutide Biotechnology), 95% purity) [MLL 9aaTAD peptide (Biotin-GS-NILPSDIMDFVLKNT)]
4 |  | 9770 ± 1570 | Biotin-GSSGDVSWDTLDLDDLD (linker between biotin and the Sp1 stretch; also called #SpD; acidic modification; source: synthetic peptide (Apeptide Shanghai Chutide Biotechnology), 95% purity) [Sp1-Ac peptide, acidic form of Sp1 9aaTAD (Biotin-GSS-GDVSWDTLDLDDLD)]
